Target: N-terminal protein A (PA)-Renilla luciferase (RL)-ARFRP1 fusion protein (UniProt Q13795)
Test: co-IP

UniProt Q13795, sequence (Q13795 whole entry, the tested form may be a part): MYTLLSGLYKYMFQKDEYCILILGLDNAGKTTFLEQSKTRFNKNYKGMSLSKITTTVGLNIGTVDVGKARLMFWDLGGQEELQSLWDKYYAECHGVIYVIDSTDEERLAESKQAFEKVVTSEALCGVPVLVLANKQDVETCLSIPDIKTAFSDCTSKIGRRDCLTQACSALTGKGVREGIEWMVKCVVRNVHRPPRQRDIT

## V5-firefly luciferase (FL)-tagged VPS35 (from UniProt Q96QK1 1-796) (natural protein)
  fold luciferase activity over control: 2.8 fold
